Data from US20110212476A1.

Biological target: Gαi1 R178M/A326S (human)
Assay: cell-based or functional assay

Sequence of Gαi1 R178M/A326S (human) (B2RSH2 2-354 R178M/A326S): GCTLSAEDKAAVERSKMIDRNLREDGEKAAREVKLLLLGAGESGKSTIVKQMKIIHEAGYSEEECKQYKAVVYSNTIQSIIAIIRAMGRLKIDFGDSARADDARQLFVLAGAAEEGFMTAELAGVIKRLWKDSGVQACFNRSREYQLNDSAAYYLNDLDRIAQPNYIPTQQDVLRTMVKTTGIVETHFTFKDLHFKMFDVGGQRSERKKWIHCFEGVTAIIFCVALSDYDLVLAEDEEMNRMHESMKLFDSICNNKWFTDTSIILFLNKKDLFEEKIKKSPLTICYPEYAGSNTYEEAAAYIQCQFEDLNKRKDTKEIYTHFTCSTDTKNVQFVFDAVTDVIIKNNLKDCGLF

stimulation of GTPase activity: 8.8 fold
B1: RGS21 (wild type RGS domain) (protein)
chain: NMDTLLANQAGLDAFRIFLKSEFSEENVEFWLACEDFKKTKNADKIASKAKMIYSEFIEADAPKEINIDFGTRDLISKNIAEPTLKCFDEAQKLIYCLMAKDSFPRFLKSEIYKKLV
